From the supplement of paper PMC9170038

Test system: MS2 coat protein
Test: apparent KD of MS2 coat protein; designed switch direction (-1 OFF switch, 1 ON switch): -1; higher = weaker reporter binding
Method in brief: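 Designed RNA switches were transcribed on Illumina chips by stalled E. coli RNA polymerase and titrated with SNAP-549-labelled MS2 coat protein from 0.7 or 1.5 nM, doubling to 3 µM. Step length ran from 0.8–1.5 h at the lowest concentration to 10–20 min at the highest. The apparent KD is the median over clusters for each design, from curve-fitted normalised cluster fluorescence.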

[1] = Eterna round: R95, input ligand: microRNA oligo, concentration not stated
[2] = input ligand: microRNA oligo, concentration not stated

Sequence: UUUAAGGAAGGAUAUACAAUAUAAAUAAUAUCCUCAUUAUUACAUGAGGAUCACCCAUGUAGAAGGUCCAAUUU [Mat - Exclusion 2 - Mod of Hog - D89] (puzzle: Exclusion 2)
- apparent KD of MS2 coat protein [1]: 137 nM

Sequence: CCGGAAAUGGAGGAUAUCGUAUCGGAUACGAUACGAGAAGGCUAUACAUGAGGAUCACCCAUGUGUCCUACCGG [Fiskers Ex 6 - 5] (puzzle: Exclusion 6)
- apparent KD of MS2 coat protein [1]: 12.6 nM

Sequence: ACAAACACGGCAGGAUAUCCUCGCAUAUGAUAGGUUGUUCUCCACAUGAGGAUCACCCAUGUCGAGGAGAAGGGCCAUCAUUCU [Tibema] (Eterna round: R96, puzzle: Exclusion NG 2)
- apparent KD of MS2 coat protein (input ligand: FMN 200 uM): 16.2 nM
- apparent KD of MS2 coat protein [2]: 12.7 nM
- apparent KD of MS2 coat protein (input ligand: none): 18.9 nM

Sequence: UCUUACUGAGGAUAUACAUAGAUUUACAUGAGGAUCACCCAUGUUCCUCUAAGUAUAUAUGUAGAAGGCAGAAGAA [Mat - Exclusion 5 - JL Mod - D43] (Eterna round: R97, puzzle: Exclusion 5)
- apparent KD of MS2 coat protein (input ligand: FMN 200 uM): 139 nM
- apparent KD of MS2 coat protein (input ligand: none): 370 nM

Sequence: AUAAGUAUAUAGGAUAUCUAGCUGGAAACAGCUAGAGAAGGAUGUACAUGAGGAUCACCCAUGUAAAUCUCAAU [Ex6/12-A3] (Eterna round: R97, puzzle: Exclusion 6)
- apparent KD of MS2 coat protein (input ligand: FMN 200 uM): 16.3 nM
- apparent KD of MS2 coat protein (input ligand: none): 14.1 nM

Sequence: AAUUAGUAUGUGAGGAUAUUGAUGAGAUGAUGGUUUAAGAAGGCACAUGAGGAUCACCCAUGUAGGAAAUAACG [JR_BMEx4_Sub005] (Eterna round: R97, puzzle: Brourd's mod of Exclusion 4)
- apparent KD of MS2 coat protein (input ligand: FMN 200 uM): 37.8 nM
- apparent KD of MS2 coat protein (input ligand: none): 24.4 nM

Sequence: CAGAAGGGAGGAUAUACAUGACCGUUUUAAUGGUUUUUAGUACAUGAGGAUCACCCAUGUAGAAGGCCCGAACU [EX2 B.23] (Eterna round: R97, puzzle: Exclusion 2)
- apparent KD of MS2 coat protein (input ligand: FMN 200 uM): 51 nM
- apparent KD of MS2 coat protein (input ligand: none): 21.8 nM

Sequence: ACACAGCGAGGAUAUACAUGAGGAUCACCCAUGUGGUGGCAGUUACGGUAGGACUAGUGUAGAAGGUGCCGUGG [EX3 #28] (Eterna round: R97, puzzle: Exclusion 3)
- apparent KD of MS2 coat protein (input ligand: FMN 200 uM): 600 nM
- apparent KD of MS2 coat protein (input ligand: none): 588 nM

Sequence: AUAAGUAUAUAGGAUAUCUAGCUGGAUACAGCUAGAGAAGGAUGUACAUGAGGAUCACCCAUGUAAAUCUCAAU [Ex6/12-A1] (Eterna round: R97, puzzle: Exclusion 6)
- apparent KD of MS2 coat protein (input ligand: FMN 200 uM): 18.7 nM
- apparent KD of MS2 coat protein (input ligand: none): 15.1 nM

Sequence: GCAGCAUAUGUAGGAUAUCUGCACGUGUAGUGCAGAGAAGGACAUGAGGAUCACCCAUGUAAUUAAGAUCAAUUAUUAAGCUGC [ENG1/4-A3] (Eterna round: R96, puzzle: Exclusion NG 1)
- apparent KD of MS2 coat protein (input ligand: FMN 200 uM): 37.7 nM
- apparent KD of MS2 coat protein [2]: 17.3 nM
- apparent KD of MS2 coat protein (input ligand: none): 22.2 nM

Sequence: UGUUGUUACGCAGGAUAUGAGGAUCACCCAUAUUAGGAUAUCGAAAGAGAAUUUCUGAGGAUCACCCAGAAGGGCGGGUUAACA [pwkr exNG2 2xF5 2xFMN.36] (Eterna round: R96, puzzle: Exclusion NG 2)
- apparent KD of MS2 coat protein (input ligand: FMN 200 uM): 118 nM
- apparent KD of MS2 coat protein [2]: 38.5 nM
- apparent KD of MS2 coat protein (input ligand: none): 47.3 nM

Sequence: CCAGCGGACAAAGGAUAUUGCGGUGGCCGGCUCGGCGUACCGAGCCUACAUGAGGAUCACCCAUGUAAGAAGGUUGUCGUAGGA [Mat - Exclusion NG 2 - Mod of JL - D72] (Eterna round: R96, puzzle: Exclusion NG 2)
- apparent KD of MS2 coat protein (input ligand: FMN 200 uM): 72.2 nM
- apparent KD of MS2 coat protein [2]: 12.2 nM
- apparent KD of MS2 coat protein (input ligand: none): 22.7 nM

Sequence: CACCUGAACACAGGAUAUCAUACAUGAGGAUCACCCAUGUAAUAAAUGAGAAUUUCGAAUGUAAUUGAGAAGGGUGGAUAAGGC [Ostricism 90 - Jieux - Exclusion NG 2] (Eterna round: R96, puzzle: Exclusion NG 2)
- apparent KD of MS2 coat protein (input ligand: FMN 200 uM): 97.8 nM
- apparent KD of MS2 coat protein [2]: 34.6 nM
- apparent KD of MS2 coat protein (input ligand: none): 41.1 nM

Sequence: AUUAGCGUAGGAUAUUGAUACAUGUACAUGAGGAUCACCCAUGUGAGGUGAGUCUUGGAUUAAGAAGGGCGAAGAA [EX5 #37] (Eterna round: R97, puzzle: Exclusion 5)
- apparent KD of MS2 coat protein (input ligand: FMN 200 uM): 1080 nM
- apparent KD of MS2 coat protein (input ligand: none): 1270 nM

Sequence: UAUAAGAUAGGAUAUACAGGCCCGUCUUCAUAUUGAUCCCGACAUGAGGAUCACCCAUGUAGAAGGAUCGUAUA [Mod 23 - Jieux - Exclusion 2] (Eterna round: R97, puzzle: Exclusion 2)
- apparent KD of MS2 coat protein (input ligand: FMN 200 uM): 23.3 nM
- apparent KD of MS2 coat protein (input ligand: none): 21.9 nM

Sequence: CUAACGAAAGGAUAUAUGGCAUGAGACAUGAGGAUCACCCAUGUGAACCACCUACAGUACAUAGAAGGUUCGCUAG [Eternabot (Original) Solution 18] (Eterna round: R97, puzzle: Exclusion 5)
- apparent KD of MS2 coat protein (input ligand: FMN 200 uM): 65.9 nM
- apparent KD of MS2 coat protein (input ligand: none): 94.6 nM

Sequence: CAAUGUACCUAGGAUAUAACCUACGACAUUGGGUUAGAAGGAGGAACAUGAGGAUCACCCAUGUGACUUCGCAA [Abiisbe] (puzzle: Exclusion 6)
- apparent KD of MS2 coat protein [1]: 9.5 nM

Sequence: UGAGUGCUGCGAGGAUAUACAUGAGGAUCACCCAUGUAAGCCUGUGAGGCUUUGCCUCACAGGAUGUAGAAGGCGCAGUACUCU [JL ENG2 1.17] (Eterna round: R96, puzzle: Exclusion NG 2)
- apparent KD of MS2 coat protein (input ligand: FMN 200 uM): 12.5 nM
- apparent KD of MS2 coat protein [2]: 9.19 nM
- apparent KD of MS2 coat protein (input ligand: none): 13.5 nM

Sequence: UUGGAUAUCUAUGGGAGUAACAUGAGGAUCACCCAUGUAUGUCUUGUUUUUUGUUCGUCAUAGGCCAUUUGAUUGGA [JR_SV3TOV1_Sub025] (puzzle: Sensor v3, turn-off variant 1)
- apparent KD of MS2 coat protein (Eterna round: R95, input ligand: FMN 200 uM): 78.8 nM
- apparent KD of MS2 coat protein [1]: 140 nM
- apparent KD of MS2 coat protein (Eterna round: R95, input ligand: none): 94.6 nM

Sequence: GUUGUACAUGAGGAUCACCCAUGUCAGGAUAUCCACCUCAGAAAGUAUACAGGAUUGUGGAGAAGGGACAUUAA [EX1 C.18] (Eterna round: R97, puzzle: Exclusion 1)
- apparent KD of MS2 coat protein (input ligand: FMN 200 uM): 56 nM
- apparent KD of MS2 coat protein (input ligand: none): 48.5 nM

Sequence: UACAUGAGGAUCACCCAUGUUUUGUCGUGUAUGGUAUUUAUCUAGGAUAUCAAUGAAUUUAUUUAUGAGAAGGAGAAUAUUAAU [JMF's solution 37] (Eterna round: R96, puzzle: Exclusion NG 3)
- apparent KD of MS2 coat protein [2]: 30.7 nM

Sequence: GAACCAUGAGGAUAUUCUGAUCCUUACAUGAGGAUCACCCAUGUGAGUACAAAAGUACUCGAAGAAGGCAUGGUUC [Omei Ex5 B1] (Eterna round: R97, puzzle: Exclusion 5)
- apparent KD of MS2 coat protein (input ligand: FMN 200 uM): 616 nM
- apparent KD of MS2 coat protein (input ligand: none): 2130 nM

Sequence: CCGGAAAUAGAGGAUAUAGUACUGGAUACAGUACUAGAAGGCUAUACAUGAGGAUCACCCAUGUGUCCUACCGG [Fiskers Ex 6 - 62] (puzzle: Exclusion 6)
- apparent KD of MS2 coat protein [1]: 13.9 nM
